We go through one molecule from patent publication US20050025760A1 (KEIO UNIVERSITY, published 2005).

In assay [1] the target is T1, recombinant protein mouse Dsg1-His (mouse, UniProt Q61495 50-564, limits assumed).
T1 construct: not shown: His tag
T1 sequence (looked up): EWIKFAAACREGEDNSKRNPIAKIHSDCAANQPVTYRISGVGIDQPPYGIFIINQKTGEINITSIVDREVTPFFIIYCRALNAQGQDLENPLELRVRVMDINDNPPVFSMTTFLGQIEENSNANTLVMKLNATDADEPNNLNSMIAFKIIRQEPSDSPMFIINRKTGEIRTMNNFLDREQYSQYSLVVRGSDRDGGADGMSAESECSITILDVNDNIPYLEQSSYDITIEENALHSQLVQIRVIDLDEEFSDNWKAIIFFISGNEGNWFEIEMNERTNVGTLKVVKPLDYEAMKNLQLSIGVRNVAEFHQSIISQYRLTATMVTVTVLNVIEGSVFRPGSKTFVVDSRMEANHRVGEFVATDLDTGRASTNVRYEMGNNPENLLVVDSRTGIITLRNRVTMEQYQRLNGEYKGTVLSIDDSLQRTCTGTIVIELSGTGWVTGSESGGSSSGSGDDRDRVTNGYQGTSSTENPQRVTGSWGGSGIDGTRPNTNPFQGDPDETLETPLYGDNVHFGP
The assay is described as follows: ELISA on recombinant mouse Dsg1-His. The text has this:
The baculovirus vectors, pEVmod-Dsg3-His and pEVmod-Dsg1-His, pEVmod-mouse Dsg3-His and pEVmod-mouse Dsg1 -His, that were constructed according to the method as described previously (J. Immunol. 159, 2010-2017, 1997) were used. These recombinant baculoviruses were infected to insect cells, High Five (Invitrogen Corporation), then the recombinant protein human Dsg3-His and Dsg1-His, recombinant protein mouse Dsg3-His and Dsg1-His were collected from the culture media, respectively. In addition, purification of these recombinant proteins was conducted using Ni-NTA column. These purified recombinant proteins were coated on ELISA (Enzyme Linked Immunosorbent Assay) plates, respectively, 50 μl each of the culture supernatant of the anti-Dsg3 monoclonal antibody-producing hybridoma was added to each well, and ELISA was practiced according to the method as previously described (J Clin Invest 105, 625-631, 2000). PV mouse model 1 serum with moderate degree of antibody titer was selected as a positive control, and 1 serum of normal mouse serum was selected as a negative control. Absorbance was determined at wavelength 450 nm (Bio-rad, Hercules, Calif. USA), and the index was shown by the following formula. Index={OD(specimen)−OD(negative control)}/{OD(positive control)−OD(negative control)}×100 A-2 (Living Cell Staining using Culture Mouse Keratinocyte PAM 212)

For the next assay, the target named is T2, Dsg3-M7 (human, UniProt P32926 50-615, V3I; K7A; P8A).
T2 construct: extracellular domain; also called hDsg3-M7
T2 sequence (looked up): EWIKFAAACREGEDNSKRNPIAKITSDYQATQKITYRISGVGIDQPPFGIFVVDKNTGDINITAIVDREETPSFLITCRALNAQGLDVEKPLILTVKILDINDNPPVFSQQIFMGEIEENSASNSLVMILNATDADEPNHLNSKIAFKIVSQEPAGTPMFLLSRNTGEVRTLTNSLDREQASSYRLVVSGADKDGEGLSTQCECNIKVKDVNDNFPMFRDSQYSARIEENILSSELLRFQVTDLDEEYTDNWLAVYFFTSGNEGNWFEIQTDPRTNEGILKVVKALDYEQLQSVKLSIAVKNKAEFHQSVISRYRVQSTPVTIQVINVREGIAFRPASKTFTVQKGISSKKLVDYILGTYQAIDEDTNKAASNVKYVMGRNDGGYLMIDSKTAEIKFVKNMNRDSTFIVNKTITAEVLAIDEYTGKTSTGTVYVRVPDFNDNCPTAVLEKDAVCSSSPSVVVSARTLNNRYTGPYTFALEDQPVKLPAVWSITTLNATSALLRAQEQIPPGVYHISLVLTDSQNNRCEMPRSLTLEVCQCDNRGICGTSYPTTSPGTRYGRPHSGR
Nature of the assay: immunoprecipitation of point-mutated molecules (FIG. 5).

A further assay has as its target T3, Dsg3-M5 (human, UniProt P32926 50-615, L75I; T77Y).
T3 construct: extracellular domain; also called point-mutated human Dsg3 molecule M5; not shown: His tag of vector pEVmod-His
T3 sequence (looked up): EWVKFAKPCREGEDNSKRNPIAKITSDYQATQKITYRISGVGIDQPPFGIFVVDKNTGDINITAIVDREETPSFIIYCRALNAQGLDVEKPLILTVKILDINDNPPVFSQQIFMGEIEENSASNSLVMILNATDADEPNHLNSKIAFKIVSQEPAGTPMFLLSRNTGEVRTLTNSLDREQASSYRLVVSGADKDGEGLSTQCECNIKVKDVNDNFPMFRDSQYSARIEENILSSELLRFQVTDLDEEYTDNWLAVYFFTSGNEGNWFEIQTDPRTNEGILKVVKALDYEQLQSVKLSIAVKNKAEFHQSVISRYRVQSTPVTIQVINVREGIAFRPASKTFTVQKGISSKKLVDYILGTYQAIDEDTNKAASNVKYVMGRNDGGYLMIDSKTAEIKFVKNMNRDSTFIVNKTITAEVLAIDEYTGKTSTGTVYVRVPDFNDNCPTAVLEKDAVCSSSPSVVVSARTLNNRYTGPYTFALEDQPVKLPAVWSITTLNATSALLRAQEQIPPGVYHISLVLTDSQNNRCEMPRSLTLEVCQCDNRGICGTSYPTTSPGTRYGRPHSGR
The description is as above.

The next assay has as its target T4, Dsg3-M1 (human, UniProt P32926 50-615, T25H; Y28C; Q29A).
T4 construct: extracellular domain; Dsg3-specific residues changed to the Dsg1-specific ones; also called point-mutated human Dsg3 molecule M1; not shown: His tag of vector pEVmod-His
T4 sequence (looked up): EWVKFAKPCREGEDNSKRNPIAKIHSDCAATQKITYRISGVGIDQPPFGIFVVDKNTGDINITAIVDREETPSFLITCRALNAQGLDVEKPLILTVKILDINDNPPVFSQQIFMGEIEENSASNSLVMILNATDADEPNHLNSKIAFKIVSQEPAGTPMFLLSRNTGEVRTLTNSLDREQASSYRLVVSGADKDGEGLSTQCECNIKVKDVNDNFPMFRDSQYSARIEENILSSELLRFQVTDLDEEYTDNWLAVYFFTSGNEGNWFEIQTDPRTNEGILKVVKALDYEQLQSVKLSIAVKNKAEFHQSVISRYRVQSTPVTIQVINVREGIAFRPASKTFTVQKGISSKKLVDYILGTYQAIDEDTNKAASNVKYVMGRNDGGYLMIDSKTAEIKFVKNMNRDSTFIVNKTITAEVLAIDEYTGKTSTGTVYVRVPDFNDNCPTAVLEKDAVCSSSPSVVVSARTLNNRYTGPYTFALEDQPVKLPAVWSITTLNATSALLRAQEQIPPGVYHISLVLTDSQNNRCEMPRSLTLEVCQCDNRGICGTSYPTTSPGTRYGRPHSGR
Described as above.

B1: anti-Dsg3 monoclonal antibody AK23 (antibody, mouse IgG1, V domains shown)
VH: QVQLQQSGTELVKPGASVKLSCKSSGYTFTSYWINWVKQRPGQGLEWIGNINPSNGGINYNEKFKSKATLTVDKSSSTAYMQLKSLTSEDSAVYYCARGGYDGYPWGQGTTVTVS
VL: DIQMTQSPKFLLVSAGDRVTITCKASQSVSYDVAWYQQKPGQSPKLLISYASNRYTGVPDRFTGSGYGSDFTFTISTVQTEDLAVYFCQQDYSSPWTFGGGTKLELKR
notes: Mouse IgG1 kappa hybridoma antibody
With B1, the binding result is listed as “no binding” in assay [1], “no binding” in the assay with Dsg3-M7, “binds” with Dsg3-M5 and “binds” with Dsg3-M1.
